Biological target: endogenous mIL-10 receptors (R1 and R2) on MC/9 mouse mast cells (mouse) (UniProt Q61727)
Test: cell-based or functional assay

Chain of UniProt Q61727 (Q61727 17-575, chain 1 of 2): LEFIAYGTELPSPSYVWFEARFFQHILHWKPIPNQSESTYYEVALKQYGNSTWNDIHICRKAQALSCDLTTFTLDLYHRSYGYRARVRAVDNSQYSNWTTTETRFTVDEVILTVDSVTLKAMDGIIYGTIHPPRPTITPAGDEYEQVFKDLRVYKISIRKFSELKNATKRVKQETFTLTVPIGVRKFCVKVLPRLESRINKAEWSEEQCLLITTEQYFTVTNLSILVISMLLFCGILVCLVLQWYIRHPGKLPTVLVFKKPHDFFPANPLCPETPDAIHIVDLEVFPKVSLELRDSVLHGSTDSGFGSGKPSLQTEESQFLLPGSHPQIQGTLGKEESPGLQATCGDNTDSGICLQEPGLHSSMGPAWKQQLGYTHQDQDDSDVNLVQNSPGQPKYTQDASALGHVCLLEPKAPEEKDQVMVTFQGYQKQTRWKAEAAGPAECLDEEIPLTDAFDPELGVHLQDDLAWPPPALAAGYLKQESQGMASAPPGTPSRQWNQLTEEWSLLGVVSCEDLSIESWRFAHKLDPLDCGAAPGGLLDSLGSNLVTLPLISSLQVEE
Chain of UniProt Q61727 (Q61190 20-349, chain 2 of 2, further chain): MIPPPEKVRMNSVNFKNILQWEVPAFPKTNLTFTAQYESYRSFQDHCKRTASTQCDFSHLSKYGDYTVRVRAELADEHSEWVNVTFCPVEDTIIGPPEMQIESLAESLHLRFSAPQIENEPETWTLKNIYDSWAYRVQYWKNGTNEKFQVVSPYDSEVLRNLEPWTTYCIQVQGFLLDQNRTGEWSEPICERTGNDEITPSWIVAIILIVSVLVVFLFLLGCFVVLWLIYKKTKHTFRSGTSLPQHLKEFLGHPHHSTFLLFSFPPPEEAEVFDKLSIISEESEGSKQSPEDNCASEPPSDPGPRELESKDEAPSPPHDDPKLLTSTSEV

| EC50 (ng/mL) in MC/9 Assay (proliferation with mIL-4 co-stimulation, Alamar Blue) | specific activity in the MC/9 bioassay relative to mIL-10 | Substance |
| --- | --- | --- |
| 0.571 ng/mL | – | Murine IL-10 (from UniProt P18893 19-178) (ligand) |
| 4.04 ng/mL | 7 fold lower | PEG-mIL-10 (from UniProt P18893 19-178) (ligand) |
